Experimental data taken from US20250215397A1, “TWO-DIMENSIONAL CULTURE METHOD HAVING CLEAR CHEMICAL COMPOSITION FOR CULTURING THREE-DIMENSIONAL INTESTINAL ORGANOID-DERIVED INTESTINAL STEM CELL AGGREGATE” (KOREA RESEARCH INSTITUTE OF BIOSCIENCE AND BIOTECHNOLOGY, priority 2022, published 2025).

B1: Noggin: BMP inhibitor (protein, UniProt Q13253 28-232, looked up)
Noggin: QHYLHIRPAPSDNLPLVDLIEHPDPIFDPKEKDLNETLLRSLLGGHYDPGFMATSPPEDRPGGGGGAAGGAEDLAELDQLLRQRPSGAMPSEIKGLEFSEGLAQGKKQRLSKKLRRKLQMWLWSQTFCPVLYAWNDLGSRFWPRYVKVGSCFSKRSCSVPEGMVCKPSKSVHLTVLRWRCQRRGGQRCGWIPIQYPIISECKCSC
B2: WNT3A: human recombinant WNT3A, Wnt signaling pathway activator (protein, UniProt P56704 19-352, looked up)
Protein Wnt-3a: SYPIWWSLAVGPQYSSLGSQPILCASIPGLVPKQLRFCRNYVEIMPSVAEGIKIGIQECQHQFRGRRWNCTTVHDSLAIFGPVLDKATRESAFVHAIASAGVAFAVTRSCAEGTAAICGCSSRHQGSPGKGWKWGGCSEDIEFGGMVSREFADARENRPDARSAMNRHNNEAGRQAIASHMHLKCKCHGLSGSCEVKTCWWSQPDFRAIGDFLKDKYDSASEMVVEKHRESRGWVETLRPRYTYFKVPTERDLVYYEASPNFCEPNPETGSFGTRDRTCNVSSHGIDGCDLLCCGRGHNARAERRREKCRCVFHWCCYVSCQECTRVYDVHTCK
B3: R-spondin 1: WNT/R-spondin activator (protein, UniProt Q2MKA7 21-263, looked up)
R-spondin-1: SRGIKGKRQRRISAEGSQACAKGCELCSEVNGCLKCSPKLFILLERNDIRQVGVCLPSCPPGYFDARNPDMNKCIKCKIEHCEACFSHNFCTKCKEGLYLHKGRCYPACPEGSSAANGTMECSSPAQCEMSEWSPWGPCSKKQQLCGFRRGSEERTRRVLHAPVGDHAACSDTKETRRCTVRRVPCPEGQKRRKGGQGRRENANRNLARKESKEAGAGSRRRKGQQQQQQQGTVGPLTSAGPA

Key:
Type in all cases: cell-based, human
[1] = test system: two-dimensional intestinal stem cell population; assay: Subculture of two-dimensional intestinal stem cells, engraftment / cell number; conditions: factor removed from culture medium, subculture; FIG. 12
Procedure: (§1) The three-dimensional intestinal organoids were isolated from a Matrigel dome and the remaining three-dimensional intestinal organoids were removed as much as possible by pipetting. The separated organoids were placed in 1 ml of 0.25% trypsin-EDTA (TE, Invitrogen) and incubated at 37° C. a water bath for about 5 minutes. Then, pipetting was performed less than five times so that the organoids were allowed to be isolated into single cells and small clumps, and a basal medium was added so that the total volume thereof was 10 ml. The cells fed into a centrifuge were placed on culture dishes coated with feeder cells or 1% of Matrigel (Corning). […]
(§2) The two-dimensional intestinal stem cell population was plated on a culture dish coated with 1% of Matrigel and then cultured for 2 to 7 days. […] After centrifugation, a medium was added to isolate the cells into single cells, and then the number of cells was measured using CountessIII cell counter (Thermo Scientific. Inc.).

[2] = test system: two-dimensional intestinal stem cell population; assay: Two-dimensional culture of intestinal stem cell population with removal of medium factors or inhibitor treatment; conditions: presence or absence of each factor; FIGS. 7-10
Procedure: as §1
To measure viability of a two-dimensional intestinal stem cell population cultured in a culture dish coated with 1% of Matrigel, a kit (LIVE/DEAD Viability/Cytotoxicity Kit, Invitrogen) capable of distinguishing and staining surviving cells and dead cells was used. […] The stained cells were observed through a fluorescence microscope (Olympus).
as §2, with “Inc.). […]” for “Inc.).”

[3] = test system: two-dimensional intestinal stem cell population; assay: Differentiation into 2.5-dimensional intestinal epithelial cells by air-liquid interface culture, medium factor screening; conditions: minimal medium composition; FIG. 24
Procedure: The intestinal stem cells grown to a density of 70 to 80% were washed 1-2 times with PBS, and then treated with TE in an incubator at 37° C. for 5 to 7 minutes. The intestinal stem cells isolated into single cells were collected and then diluted using the hIO medium. The cells were gathered by centrifugation, supernatant was removed, the intestinal stem cell culture medium was added thereto and sufficiently mixed, and then the number of cells was measured using Countess III cell counter (Thermo Scientific. Inc.). 2.5-3.5×10^5 cells were placed in an insert of 12-transwell plate (Corning) coated with 1% of Matrigel, and cultured in an incubator. After the cell density reached 100%, the culture medium of an upper layer was completely removed, and the culture medium of a lower layer was replaced with a differentiation medium (2 mM of L-glutamine, 1% of Penicillin-Streptomycin, and 15 mM of a HEPES buffer in Advanced DMEM F12) comprising 200 ng/ml of R-spondin 1 (R&D Systems), 100 ng/ml of EGF (R&D Systems), 2.5 µM of Prostaglandin E2 (Sigma-aldrich), 10 μM of SB202190 (Sigma-aldrich), and 10 mM of nicotinamide (Sigma-aldrich). Thereafter, once every 2 days, a surface of the upper layer was washed with the PBS or hIO medium, and the lower layer was replaced with a new differentiation medium and cultured for 8 to 12 days.

Row | Molecule | need for long-term subculturing [1] | role of essential culture medium factor (stemness, proliferation, death) [2] | effect on differentiation into intestinal epithelial cells [3]
1 | B1 | required to more efficiently perform long-term culturing |  | 
2 | B2 | required to more efficiently perform long-term culturing |  | 
3 | B3 |  | modulate stemness and proliferation of two-dimensional intestinal stem cells | excellent effect on differentiation into intestinal epithelial cells
